The text below walks through data of PMC4761948 (2016).

For the assay, the target named is T1, GST-GCM1 (Homo sapiens (Human), UniProt Q9NP62).
T1 chain: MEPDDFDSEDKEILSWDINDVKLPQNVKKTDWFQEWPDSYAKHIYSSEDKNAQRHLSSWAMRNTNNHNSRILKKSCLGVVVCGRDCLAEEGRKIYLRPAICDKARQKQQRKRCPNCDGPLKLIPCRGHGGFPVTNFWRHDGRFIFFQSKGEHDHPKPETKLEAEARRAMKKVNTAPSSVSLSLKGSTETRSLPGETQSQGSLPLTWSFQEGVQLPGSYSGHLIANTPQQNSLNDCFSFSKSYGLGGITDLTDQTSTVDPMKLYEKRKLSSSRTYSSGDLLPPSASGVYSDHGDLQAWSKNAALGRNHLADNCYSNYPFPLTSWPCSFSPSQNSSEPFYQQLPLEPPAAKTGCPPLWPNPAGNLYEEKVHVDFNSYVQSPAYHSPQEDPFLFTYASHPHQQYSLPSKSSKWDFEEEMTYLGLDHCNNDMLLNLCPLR
The experiment in a line: GST pull-down.

B1: GATA3-FLAG (protein)
chain: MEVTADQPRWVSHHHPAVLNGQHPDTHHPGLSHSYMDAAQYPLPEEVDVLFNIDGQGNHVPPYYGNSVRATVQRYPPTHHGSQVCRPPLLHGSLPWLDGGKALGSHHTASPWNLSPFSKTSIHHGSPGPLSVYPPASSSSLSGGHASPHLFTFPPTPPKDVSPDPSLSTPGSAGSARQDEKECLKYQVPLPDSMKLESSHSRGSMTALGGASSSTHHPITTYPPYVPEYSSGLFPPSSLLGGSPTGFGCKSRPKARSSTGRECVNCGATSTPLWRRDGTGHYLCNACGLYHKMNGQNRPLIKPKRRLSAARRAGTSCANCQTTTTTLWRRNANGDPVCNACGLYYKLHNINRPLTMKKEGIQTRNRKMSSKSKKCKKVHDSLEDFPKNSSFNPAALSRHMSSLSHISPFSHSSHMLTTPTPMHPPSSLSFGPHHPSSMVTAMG
Turning to B1, the binding result is recorded as “binds”.
